Assay results as given in patent US20190300616A1 (UNIVERSITY OF CHICAGO, published 2019).

Experiments:
*41BB.z = biological target: T1, *41BB.z; experiment: flow cytometry of transduced T cells stained with IL13Rα2Fc and secondary antibody, axis labelled CAR
T1 construct: also called M47 IL13Ra2 - SH - TM* (CD8a) - 41BB - ζ-chain CAR on T cells

CD28.OX40.z = biological target: T2, CD28.OX40.z; experiment: as above
T2 construct: also called M47 IL13Ra2 - SH - TM - CD28 - OX40 - ζ-chain CAR on T cells

[1] = biological target: T3, recombinant human IL13Rα1hFc chimera (human, UniProt P78552 27-343, limits assumed); experiment: plate-bound ELISA on IL13Rα1hFc
T3 construct: Bought from R&D Systems; also called rhIL13Rα1; hrIL13Rα1; not shown: human Fc (hFc) of the purchased chimera
T3 sequence (looked up): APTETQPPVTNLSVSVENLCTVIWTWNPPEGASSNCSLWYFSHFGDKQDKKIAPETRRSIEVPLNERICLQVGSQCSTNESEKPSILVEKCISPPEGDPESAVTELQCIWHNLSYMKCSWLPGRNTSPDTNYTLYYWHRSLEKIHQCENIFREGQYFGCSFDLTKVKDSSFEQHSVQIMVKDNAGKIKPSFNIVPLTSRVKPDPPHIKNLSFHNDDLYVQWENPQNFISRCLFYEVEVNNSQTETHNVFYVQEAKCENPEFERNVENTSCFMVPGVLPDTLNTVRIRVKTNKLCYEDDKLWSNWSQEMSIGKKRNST

[2] = biological target: T4, recombinant mouse IL13Rα2hFc chimera (mouse, UniProt O88786 22-334, limits assumed); experiment: plate-bound ELISA on mouse rIL13Rα2hFc
T4 construct: Bought from R&D Systems; also called mouse rIL13Rα2; mouse recombinant IL13Rα2; not shown: human Fc (hFc) of the purchased chimera
T4 sequence (looked up): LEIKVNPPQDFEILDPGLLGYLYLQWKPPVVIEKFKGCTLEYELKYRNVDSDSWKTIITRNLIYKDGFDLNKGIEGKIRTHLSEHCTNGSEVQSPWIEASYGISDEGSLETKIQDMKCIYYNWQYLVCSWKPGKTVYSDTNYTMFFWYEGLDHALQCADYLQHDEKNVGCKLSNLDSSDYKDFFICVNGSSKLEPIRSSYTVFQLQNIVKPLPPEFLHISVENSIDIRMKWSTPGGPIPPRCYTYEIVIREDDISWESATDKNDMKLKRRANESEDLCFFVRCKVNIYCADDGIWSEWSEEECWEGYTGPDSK

B1: recombinant human IL13Rα2hFc chimera (Fc fusion, UniProt Q14627 27-343, looked up)
chain: DTEIKVNPPQDFEIVDPGYLGYLYLQWQPPLSLDHFKECTVEYELKYRNIGSETWKTIITKNLHYKDGFDLNKGIEAKIHTLLPWQCTNGSEVQSSWAETTYWISPQGIPETKVQDMDCVYYNWQYLLCSWKPGIGVLLDTNYNLFYWYEGLDHALQCVDYIKADGQNIGCRFPYLEASDYKDFYICVNGSSENKPIRSSYFTFQLQNIVKPLPPVYLTFTRESSCEIKLKWSIPLGPIPARCFDYEIEIREDDTTLVTATVENETYTLKTTNETRQLCFVVRSKVNIYCSDDGIWSEWSDKQCWEGEDLSKKTLLR
notes: Bought from R&D Systems; also called rhIL13Rα2hFc; rhIL13Rα2; not shown: human Fc (hFc) of the purchased chimera
binding result (*41BB.z): binds | binding result (CD28.OX40.z): binds

B2: IL13Rα2 (clone 47) mAb (antibody, V domains shown)
VH: QVQLQQPGAELVRPGASVKLSCKASGYTFSNYLMNWVKQRPEQDLDWIGRIDPYDGDIDYNQNFKDKAILTVDKSSSTAYMQLSSLTSEDSAVYYCARGYGTAYGVDYWGQGTSVTVSS
VL: not shown
notes: Mouse hybridoma antibody; mIgG1 was used as isotype control; also called mAb47; m47
binding result [1]: no binding (tested: 4 µg/ml) | binding result [2]: no binding
